Assay results from patent US20070078092A1 (CUREGENICS, published 2007).
Each block holds one binder with its values, some of them ahead of it. Square brackets hold non-standard residues; d marks the D form. Ends that are not written are not given here. * marks the point of attachment. Cholesteryloxycarbonyl = CC(C)CCC[C@@H](C)[C@H]1CC[C@H]2[C@@H]3CC=C4C[C@@H](OC(=O)*)CC[C@]4(C)[C@H]3CC[C@]12C; hLeu = CC(C)CC[C@H](N)C(=O)O; Orn = NCCC[C@H](N)C(=O)O; Nva = CCC[C@H](N)C(=O)O; Dap = NC[C@H](N)C(=O)O

Columns and labels:
Assay in all cases: cell-based or functional assay
protein kinase B (PKB) [1] = target: protein kinase B (PKB)
protein kinase A (PKA) [2] = target: protein kinase A (PKA)
protein kinase B (PKB) [3] = target: protein kinase B (PKB); remark: listed apart in the source
protein kinase A (PKA) [4] = target: protein kinase A (PKA); remark: listed apart in the source

Binder: RPR[Orn]E(NH‑(CH2)2‑NH‑SO2‑Isoquinoline)SF [PTR 6132]
IC50, PKB kinase inhibition (protein kinase B (PKB) [1]): 20 nM
IC50, PKA kinase inhibition (protein kinase A (PKA) [2]): 12 nM

B1: PTR 6154 (peptide)
peptide: RPR[Nva]Y[Dap][hLeu]-NH2
modifications: N-terminus assumed
SMILES: CCC[C@H](NC(=O)[C@H](CCCNC(=N)N)NC(=O)[C@@H]1CCCN1C(=O)[C@@H](N)CCCNC(=N)N)C(=O)N[C@@H](Cc1ccc(O)cc1)C(=O)N[C@@H](CN)C(=O)N[C@@H](CCC(C)C)C(N)=O
IC50, PKB kinase inhibition (protein kinase B (PKB) [1]): 900 nM
IC50, PKA kinase inhibition (protein kinase A (PKA) [2]): > 50000 nM

B2: PTR 6184 (peptide)
peptide: RPR[Nva]YA[hLeu]-NH2
modifications: N-terminus assumed
SMILES: CCC[C@H](NC(=O)[C@H](CCCNC(=N)N)NC(=O)[C@@H]1CCCN1C(=O)[C@@H](N)CCCNC(=N)N)C(=O)N[C@@H](Cc1ccc(O)cc1)C(=O)N[C@@H](C)C(=O)N[C@@H](CCC(C)C)C(N)=O
IC50, PKB kinase inhibition (protein kinase B (PKB) [1]): 300 nM
IC50, PKA kinase inhibition (protein kinase A (PKA) [2]): > 50000 nM

Next, values leading:

IC50, in vitro kinase assay PKB (protein kinase B (PKB) [3]): 100 nM
IC50, in vitro kinase assay PKA (protein kinase A (PKA) [4]): 5000 nM
B3: PTR 6316 (peptide)
peptide: RQIKIWFQNRRMKWKKRPR[Nva]Y[Dap][hLeu]K(Cholesteryloxycarbonyl)-NH2
modifications: N-terminus assumed
SMILES: CCC[C@H](NC(=O)[C@H](CCCNC(=N)N)NC(=O)[C@@H]1CCCN1C(=O)[C@H](CCCNC(=N)N)NC(=O)[C@H](CCCCN)NC(=O)[C@H](CCCCN)NC(=O)[C@H](Cc1c[nH]c2ccccc12)NC(=O)[C@H](CCCCN)NC(=O)[C@H](CCSC)NC(=O)[C@H](CCCNC(=N)N)NC(=O)[C@H](CCCNC(=N)N)NC(=O)[C@H](CC(N)=O)NC(=O)[C@H](CCC(N)=O)NC(=O)[C@H](Cc1ccccc1)NC(=O)[C@H](Cc1c[nH]c2ccccc12)NC(=O)[C@@H](NC(=O)[C@H](CCCCN)NC(=O)[C@@H](NC(=O)[C@H](CCC(N)=O)NC(=O)[C@@H](N)CCCNC(=N)N)[C@@H](C)CC)[C@@H](C)CC)C(=O)N[C@@H](Cc1ccc(O)cc1)C(=O)N[C@@H](CN)C(=O)N[C@@H](CCC(C)C)C(=O)N[C@@H](CCCCNC(=O)O[C@H]1CC[C@@]2(C)C(=CC[C@H]3[C@@H]4CC[C@H]([C@H](C)CCCC(C)C)[C@@]4(C)CC[C@@H]32)C1)C(N)=O

IC50, in vitro kinase assay PKA (protein kinase A (PKA) [4]): 300 nM
Binder: Cholesteryloxycarbonyl-RPR[Orn]E(aminopropylmercaptoisoquinoline)SF-NH2 [PTR 6300]
